Measured values published in patent publication US20240392020A1 (JIANGSU HENGRUI PHARMACEUTICALS, published 2024).
Where a chain is given by its changes, count along the chain named.

B1: F18 (antibody)
heavy: not shown
light: DTVVTQEPSFSVSPGGTVTLTCGLSSGSVSTSHYPSWYQQTPGQAPRMLIYNTNTRSSGVPDRFSGSILGNKAALTITGAQADDESDYYCAIHVDRDIWVFGGGTKLTVLSGAPRFKTRPKAFVVSVGKDATLSSQIVGNPTPQVSWEKDQQPVAAGARFRLAQDGDLYRLHILDLALGDSGQYVSRARNAIGEAFACVGLQVDAEA
B2: F16 (antibody)
heavy: not shown
light: B1 light with K117L, H172T
B3: F23 (antibody)
heavy: not shown
light: B1 light with K117L, K121L
B4: F17 (antibody)
heavy: not shown
light: B1 light with H172K
B5: F19 (antibody)
heavy: not shown
light: B1 light
B6: F20 (antibody)
heavy: not shown
light: B1 light with K117L, K121L, H172K
B7: F21 (antibody)
heavy: not shown
light: B1 light with K117L, K121L, H172K
B8: F22 (antibody)
heavy: not shown
light: B1 light with K117L, K121L
B9: R7 (antibody)
heavy: not shown
light: DIQMTQSPSSLSASVGDRVTITCLASEGISSYLAWYQQKPGKAPKLLIYGANSLQTGVPSRFSGSGSATDYTLTISSLQPEDFATYYCQQSYKFPNTFGQGTKVEVKSGAPRFLTRPKAFVVSVGKDATLSCQIVGNPTPQVSWEKDQQPVAAGARFRLAQDGDLYRLTILDLALGDSGQYVCRARNAIGEAFACVGLQVDAEA
B10: R9 (antibody)
heavy: not shown
light: B9 light with R116C, C195A
B11: R8 (antibody)
heavy: not shown
light: B9 light with A110C, C195A
B12: R11 (antibody)
heavy: not shown
light: B9 light with A110C, C132S, C183S, C195A
B13: R12 (antibody)
heavy: not shown
light: B9 light with R116C, C132S, C183S, C195A
B14: F24 (antibody)
heavy: not shown
light: DTVVTQEPSFSVSPGGTVTLTCGLSSGSVSTSHYPSWYQQTPGQAPRMLIYNTNTRSSGVPDRFSGSILGNKAALTITGAQADDESDYYCAIHVDRDIWVFGGGTKLTVLDQPQFSGAPRFKTRPKAFVVSVGKDATLSSQIVGNPTPQVSWEKDQQPVAAGARFRLAQDGDLYRLKILDLALGDSGQYVSRARNAIGEAFACVGLQVDAEA
B15: F25 (antibody)
heavy: not shown
light: B14 light
B16: F33 (antibody)
heavy: not shown
light: B14 light with D111G, Q112G, P113G, Q114G, F115S, K122L, K177T
B17: F29 (antibody)
heavy: not shown
light: B14 light with K122R
B18: F30 (antibody)
heavy: not shown
light: B14 light with K122R, K177H
B19: F31 (antibody)
heavy: not shown
light: B14 light with K122R, K177H
B20: F27 (antibody)
heavy: not shown
light: B14 light with K177H
B21: F28 (antibody)
heavy: not shown
light: B14 light with K122R
B22: F26 (antibody)
heavy: not shown
light: B14 light with K177H
B23: N11 (antibody)
heavy: not shown
light: EIVLTQSPGTLSLSPGERATLSCRASQNINNRFLAWYQQRPGQAPRLLIYAASSRATGVPDRFSGSGSGTDFTLTISRLEAEDFAMYHCQQYGSFPRTFGQGTMVDIKSGAPRFKTRPKAFVVSVGKDATLSSQIVGNPTPQVSWEKDQQPVAAGARFRLAQDGDLYRLKILDLALGDSGQYVSRARNAIGEAFACVGLQVDAEA
B24: N12 (antibody)
heavy: not shown
light: B23 light with K170H
B25: F32 (antibody)
heavy: not shown
light: DTVVTQEPSFSVSPGGTVTLTCGLSSGSVSTSHYPSWYQQTPGQAPRMLIYNTNTRSSGVPDRFSGSILGNKAALTITGAQADDESDYYCAIHVDRDIWVFGGGTKLTVLGGGGSGGGGSSGAPRFLTRPKAFVVSVGKDATLSSQIVGNPTPQVSWEKDQQPVAAGARFRLAQDGDLYRLTILDLALGDSGQYVSRARNAIGEAFACVGLQVDAEA
B26: F34 (antibody)
heavy: not shown
light: B25 light
B27: H11 (antibody)
heavy: not shown
light: DIQMTQSPSSVSASVGDRVTITCRASQDIANYLSWYQQKPGKSPKLLIYGTSNLEVGVPSRFSGSRSGTDFTLTISSLQPEDFATYYCLQDKEFPRTFGGGTKVEIKQGSPPEFLRFPRPVRVVSGAEAELKCVVLGEPPPVVVWEKGGQQLAASERLSFPADGAEHGLLLTAALPTDAGCYVCRARNAAGEAYAAAAVTVLEPP
B28: H12 (antibody)
heavy: not shown
light: B27 light with C181V, G191C
B29: H15 (antibody)
heavy: not shown
light: B27 light with C133S, C181V, C184S, A193C
B30: H13 (antibody)
heavy: not shown
light: B27 light with C181V, A193C
B31: H14 (antibody)
heavy: not shown
light: B27 light with C133S, C184S
B32: H5 (antibody)
heavy: not shown
light: DIQMTQSPSSVSASVGDRVTITCRASQDIANYLSWYQQKPGKSPKLLIYGTSNLEVGVPSRFSGSRSGTDFTLTISSLQPEDFATYYCLQDKEFPRTFGGGTKVEIKSGAPRFLTRPKAFVVSVGKDATLSCQIVGNPTPQVSWEKDQQPVAAGARFRLAQDGDLYRLTILDLALGDSGQYVCRARNAIGEAFACVGLQVDAEA
B33: H9 (antibody)
heavy: not shown
light: B32 light with A110C, C132S, C183S, C195A
B34: H8 (antibody)
heavy: not shown
light: B32 light with C132S, C183S
B35: H7 (antibody)
heavy: not shown
light: B32 light with R116C, C195A
B36: H10 (antibody)
heavy: not shown
light: B32 light with R116C, C132S, C183S, C195A
B37: H6 (antibody)
heavy: not shown
light: B32 light with A110C, C195A

Assays:
[1] = target: T1, B7H3 on the recombinant cell line CT26-B7H3 (UniProt Q5ZPR3 29-534, limits assumed); test: FACS, CT26-B7H3 cells
T1 construct: whole, on cells
T1 sequence (looked up): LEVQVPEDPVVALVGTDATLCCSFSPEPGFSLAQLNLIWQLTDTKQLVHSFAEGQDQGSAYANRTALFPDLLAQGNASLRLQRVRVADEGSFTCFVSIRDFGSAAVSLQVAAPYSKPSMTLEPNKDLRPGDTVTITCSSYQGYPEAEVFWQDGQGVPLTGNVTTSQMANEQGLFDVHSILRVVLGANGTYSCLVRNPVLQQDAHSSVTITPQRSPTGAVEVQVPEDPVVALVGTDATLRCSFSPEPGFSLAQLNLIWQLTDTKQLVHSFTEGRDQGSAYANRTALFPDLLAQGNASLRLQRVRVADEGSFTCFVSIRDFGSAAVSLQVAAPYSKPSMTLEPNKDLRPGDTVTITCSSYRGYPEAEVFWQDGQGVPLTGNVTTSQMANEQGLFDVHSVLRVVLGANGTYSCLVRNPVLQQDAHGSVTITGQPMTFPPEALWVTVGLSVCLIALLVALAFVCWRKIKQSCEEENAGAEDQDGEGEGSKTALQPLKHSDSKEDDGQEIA

hIL-5 = target: T2, hIL-5 (human, UniProt P05113 20-134); test: ELISA
T2 construct: bought
Procedure: For an antibody targeting a soluble protein, the binding activity of the antibody against the soluble protein was detected by ELISA. […] After the blocking was completed, the blocking solution was discarded; and the plate was washed 3 times with a PBST buffer (pH 7.4, PBS containing 0.1% tween-20). 100 μL of the antibody solution diluted in a gradient was added to each well, and the mixture was incubated at 37° C. for 1 h. After the incubation was completed, the plate was washed 3 times with PBST. […] The plate was washed 3 times with PBST. […] The reaction was stopped by adding 50 μL of 1 M H₂SO₄ to each well. The absorbance values at 450 nm were read on a microplate reader, the binding curves of the antibodies to an antigen were fitted with software, and the EC₅₀ values were calculated.

CEA on MKN45 cells = target: T3, CEA on MKN45 cells (UniProt P06731 35-685); test: FACS, MKN45 cells
T3 construct: whole, on cells
T3 sequence (looked up): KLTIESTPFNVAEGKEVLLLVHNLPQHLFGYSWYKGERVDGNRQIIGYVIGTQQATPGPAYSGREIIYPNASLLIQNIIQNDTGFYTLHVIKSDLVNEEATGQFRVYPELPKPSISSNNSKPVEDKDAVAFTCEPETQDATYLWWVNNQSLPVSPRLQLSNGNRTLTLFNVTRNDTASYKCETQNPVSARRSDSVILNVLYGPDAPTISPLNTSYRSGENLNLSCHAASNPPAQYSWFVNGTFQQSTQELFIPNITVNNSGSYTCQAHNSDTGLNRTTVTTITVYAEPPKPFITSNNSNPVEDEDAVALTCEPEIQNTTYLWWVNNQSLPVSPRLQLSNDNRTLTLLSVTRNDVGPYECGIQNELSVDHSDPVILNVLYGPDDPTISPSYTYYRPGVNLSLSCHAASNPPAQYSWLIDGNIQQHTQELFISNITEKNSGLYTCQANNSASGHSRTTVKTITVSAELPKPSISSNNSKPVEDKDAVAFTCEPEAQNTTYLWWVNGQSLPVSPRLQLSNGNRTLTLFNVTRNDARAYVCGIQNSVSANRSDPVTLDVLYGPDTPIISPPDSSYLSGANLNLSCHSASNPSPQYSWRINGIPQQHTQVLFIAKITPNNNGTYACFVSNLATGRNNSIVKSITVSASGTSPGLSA

| Binder | EC50 [1] [nM] | EC50 (hIL-5) [nM] | also measured |
| --- | --- | --- | --- |
| B1 | 3.9 |  |  |
| B2 | 2 |  |  |
| B3 | 4.1 |  |  |
| B4 | 4.8 |  |  |
| B5 | 2.2 |  |  |
| B6 | 1.9 |  |  |
| B7 | 3.4 |  |  |
| B8 | 2.4 |  |  |
| B9 |  | 4.89 |  |
| B10 |  | 3.95 |  |
| B11 |  | 3.84 |  |
| B12 |  | 3.3 |  |
| B13 |  | 4.36 |  |
| B14 | 2.4 |  |  |
| B15 | 2.6 |  |  |
| B16 | 1.92 |  |  |
| B17 | 3.6 |  |  |
| B18 | 3.4 |  |  |
| B19 | 2.4 |  |  |

| Binder | EC50 [1] [nM] | EC50 (hIL-5) [nM] | also measured |
| --- | --- | --- | --- |
| B20 | 1.2 |  |  |
| B21 | 2.4 |  |  |
| B22 | 2.6 |  |  |
| B23 |  |  | EC50 (CEA on MKN45 cells): 5 nM |
| B24 |  |  | EC50 (CEA on MKN45 cells): 5.3 nM |
| B25 | 3.69 |  |  |
| B26 | 2.38 |  |  |
| B27 |  | 3.38 |  |
| B28 |  | 4.34 |  |
| B29 |  | 4.26 |  |
| B30 |  | 3.56 |  |
| B31 |  | 2.61 |  |
| B32 |  | 3.4 |  |
| B33 |  | 2.92 |  |
| B34 |  | 2.11 |  |
| B35 |  | 2.7 |  |
| B36 |  | 2.86 |  |
| B37 |  | 2.1 |  |
